Data as given in the supplement of paper PMC12764529.
± gives the half width of the 95% confidence interval.

Experiments:
[1] = folding stability dG unfold (combined trypsin and chymotrypsin); higher = more stable
Summary of the method: (§1)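 Bayesian fitting of sequencing counts gave K50 for each design. Unfolding free energy followed by setting this against a sequence-predicted unfolded-state K50 and a shared folded-state K50, either per protease or with trypsin and chymotrypsin combined. The designs, under 80 residues and lacking cysteine, were digested in a PA-tagged cDNA display format at 11 threefold-diluted protease concentrations and without protease, and only those with AlphaFold2 dimer inter-PAE above 15 were kept.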

[2] = folding stability dG unfold from trypsin proteolysis; higher = more stable
Summary of the method: as §1

[3] = folding stability dG unfold from chymotrypsin proteolysis; higher = more stable
Summary of the method: as §1

SAGGSAGGSPEAPADRKLVALLRSPDSDTVYLVEITPDGIVAYNANNEKTPVSPEYLVAVFDASAGGSAGGS [r20_35_TrMRF]
folding stability dG unfold [1]: 1.02 ± 0.036 kcal/mol
folding stability dG unfold [2]: 0.883 ± 0.012 kcal/mol
folding stability dG unfold [3]: 1.09 ± 0.054 kcal/mol

SAGGSAGGSAGGSGKLYYIVVELPNGEKISLLVESPEGAIELLEKLNYPVVKAEFFPISSAGGSAGGSAGGS [r4_213_TrMRF]
folding stability dG unfold [1]: 2.84 ± 0.12 kcal/mol
folding stability dG unfold [2]: 2.29 ± 0.091 kcal/mol
folding stability dG unfold [3]: 3.09 ± 0.055 kcal/mol

SAGGSAGGSMTWTETVITLKGNGSETTTYKAKVTEDPSSDTVLVTLPDGTPLTIPKSQVTINSSAGGSAGGS [r12_256_JUSTAS]
folding stability dG unfold [1]: 0.399 ± 0.096 kcal/mol
folding stability dG unfold [2]: -0.131 ± 0.18 kcal/mol
folding stability dG unfold [3]: 0.668 ± 0.14 kcal/mol

SAGGSAGGSAGGGMVLKTEPVVITSTSTAPTEDGKWITTTSTLVVTKELILPSTLPGLLSAGGSAGGSAGGS [r10_1133_JUSTAS]
folding stability dG unfold [1]: 0.34 ± 0.096 kcal/mol
folding stability dG unfold [2]: 0.173 ± 0.028 kcal/mol
folding stability dG unfold [3]: 0.276 ± 0.11 kcal/mol

SAGGPPGEEIPIMVRIKMRNPENGEEMELPITHTVKSKEDLKWAKKLVDEIAEEFREQGMKDVEIEIFSAGG [r13_360_TrROS]
folding stability dG unfold [1]: 0.908 ± 0.15 kcal/mol
folding stability dG unfold [2]: 0.47 ± 0.15 kcal/mol
folding stability dG unfold [3]: 1.07 ± 0.21 kcal/mol

SAGGMKTVIVRVRRDSPEVRKALEALRKAKPGEEVELTVKGKKIRIVKIEEVDGEYYVTVEIEEEEESAGGS [r16_404_TrROS_Hall]
folding stability dG unfold [1]: 3.75 ± 0.093 kcal/mol
folding stability dG unfold [2]: 3.39 ± 0.074 kcal/mol
folding stability dG unfold [3]: 3.96 ± 0.062 kcal/mol

SSMPTTVTLTNPADSTTTPLPVPSNISVETTTLPDGSTAGTVTVTDPSTGKTTTITFSGPNTLTSTSATSSA [r9_467_JUSTAS]
folding stability dG unfold [1]: 0.804 ± 0.13 kcal/mol
folding stability dG unfold [2]: 1.05 ± 0.03 kcal/mol
folding stability dG unfold [3]: 0.398 ± 0.26 kcal/mol

SAGGSAGGSAGTIPLDNIKEVELEYDPNSGYYEHRIEFPNGRRLVIRFPPSDNVEIQWLDSAGGSAGGSAGG [r17_182_TrROS]
folding stability dG unfold [1]: 1.31 ± 0.092 kcal/mol
folding stability dG unfold [2]: 1.09 ± 0.025 kcal/mol
folding stability dG unfold [3]: 1.33 ± 0.062 kcal/mol

SAGMKVLKFKSKEELLEAIDKSPEPVLVINKKTGKKEVLSKEELKKKLKPGDEIEIVLLKDLSPEELKKSAG [r5_677_TrROS_Hall]
folding stability dG unfold [1]: 1.4 ± 0.14 kcal/mol
folding stability dG unfold [2]: 1.05 ± 0.097 kcal/mol
folding stability dG unfold [3]: 1.78 ± 0.14 kcal/mol

SASSETFEIEVKVKLFFRDPEKGKLVEREFDAIVKVTVNPETGEVKVEVYFKPLGKPVTITLPPGASIESAG [r14_587_TrMRF]
folding stability dG unfold [1]: 4.26 ± 0.21 kcal/mol
folding stability dG unfold [2]: 3.13 ± 0.2 kcal/mol
folding stability dG unfold [3]: 4.54 ± 0.16 kcal/mol

SAGGSAGGSMKPVVDSKADPTSGPEKTLTLTLGDETVTHTVSSSESLTIPLPPNSTVSFEPLGSAGGSAGGS [r12_373_JUSTAS]
folding stability dG unfold [1]: 1.03 ± 0.042 kcal/mol
folding stability dG unfold [2]: 0.791 ± 0.021 kcal/mol
folding stability dG unfold [3]: 1.11 ± 0.02 kcal/mol

SGPGPEKIKEIIKKLFPNLKIESIEEDPATGKYTIKFPNGYTVEVEVPPDGTVTLTVKTPNSTTTFTVPESA [r9_304_JUSTAS]
folding stability dG unfold [1]: 2.26 ± 0.063 kcal/mol
folding stability dG unfold [2]: 2.15 ± 0.086 kcal/mol
folding stability dG unfold [3]: 2.32 ± 0.031 kcal/mol

SAGGSAGGSAGVLSLEGVVSTEEFEDPSSSNKTLVITLPGGERVVVNLPSSPSSVVTRLVSAGGSAGGSAGG [r17_182_JUSTAS]
folding stability dG unfold [1]: 0.422 ± 0.074 kcal/mol
folding stability dG unfold [2]: 0.215 ± 0.028 kcal/mol
folding stability dG unfold [3]: 0.467 ± 0.066 kcal/mol

SAGGSAMPVKTSTTTEGDTVTTYTLEPVGGSTTLTTTTTTVTKTNSGTTTTSTTTTTPLPTASGATSAGGSA [r15_725_JUSTAS]
folding stability dG unfold [1]: -0.014 ± 0.074 kcal/mol
folding stability dG unfold [2]: -0.0787 ± 0.022 kcal/mol
folding stability dG unfold [3]: -0.108 ± 0.074 kcal/mol

SAGGSAGGSAGGSKKIYLIKIEIEKKITYDKKTKELKIEEKIKIKIEPLSEEDLEKLLKSAGGSAGGSAGGS [r4_274_TrROS_Hall]
folding stability dG unfold [1]: 3.69 ± 0.46 kcal/mol
folding stability dG unfold [2]: 2.97 ± 0.25 kcal/mol
folding stability dG unfold [3]: 3.83 ± 0.18 kcal/mol

SAGGSMKITVTVSYSELKEKYPDLTEEELKELAEEIAKEKKKEIIEGNPDISENTEIEVKIEKPAVIESAGG [r13_634_JUSTAS]
folding stability dG unfold [1]: 1.84 ± 0.12 kcal/mol
folding stability dG unfold [2]: 0.76 ± 0.11 kcal/mol
folding stability dG unfold [3]: 2.27 ± 0.052 kcal/mol

SAGGSAGGSKLVLRIVVRNKETGEWQTLELEIEVEESEEEALAKAKELLASLPEEDVKIEILPSAGGSAGGS [r12_871_TrROS_Hall]
folding stability dG unfold [1]: 3.56 ± 0.071 kcal/mol
folding stability dG unfold [2]: 3.18 ± 0.14 kcal/mol
folding stability dG unfold [3]: 3.79 ± 0.065 kcal/mol
